Measurements: PMC5520896, “HIV integrase inhibitor, Elvitegravir, impairs RAG functions and inhibits V(D)J recombination” (Cell Death & Disease, 2017)

Legend:
[1] = target: T1, RAG1 central domain (Mus musculus, UniProt P15919); test: biolayer interferometry (biotinylated central domain on SSA sensors); also circular dichroism, and inhibition of purified cRAG binding, cleavage and hairpin formation
T1 construct: central domain (amino acids 528–760)
T1 sequence (P15919 528-760): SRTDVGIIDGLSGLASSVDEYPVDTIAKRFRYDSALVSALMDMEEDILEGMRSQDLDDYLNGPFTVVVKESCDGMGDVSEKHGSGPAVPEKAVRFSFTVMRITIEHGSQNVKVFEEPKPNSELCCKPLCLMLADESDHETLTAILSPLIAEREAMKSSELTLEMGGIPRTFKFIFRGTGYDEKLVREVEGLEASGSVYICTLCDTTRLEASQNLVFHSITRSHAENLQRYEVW

[2] = target: T2, RAG1 central domain mutant CD-DD (Mus musculus, UniProt P15919, D600A/D708A); test: biolayer interferometry (biotinylated CD-DD on SSA sensors); assay type: binding
T2 construct: central domain (amino acids 528–760) with point mutations D600A/D708A
T2 sequence (P15919 528-760 D600A/D708A): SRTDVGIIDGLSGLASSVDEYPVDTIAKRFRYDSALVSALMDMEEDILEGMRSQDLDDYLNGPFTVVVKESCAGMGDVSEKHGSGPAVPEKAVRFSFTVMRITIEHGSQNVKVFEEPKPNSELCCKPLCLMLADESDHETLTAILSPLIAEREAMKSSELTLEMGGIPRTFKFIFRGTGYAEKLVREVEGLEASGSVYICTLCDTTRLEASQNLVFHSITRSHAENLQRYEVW

[3] = target: T3, MBP-core RAG1 (cRAG1);MBP-core RAG2 (cRAG2) (;, UniProt P15919;P21784 384-1040;1-383, |); test: EMSA; 5 mM Ca2+, no inhibitor; 22.5 mM MOPS-KOH pH 7.0, 20% DMSO, 2.2 mM DTT, 50 mM K-glutamate, 2% glycerol, 100 ng/ml BSA, 5 mM CaCl2, 100 ng RAG, 2 h 25 C, then 0.01% glutaraldehyde fixation 37 C 10 min; 6% native PAGE; settings: protein: recombinant;recombinant; tags: N-terminal MBP;N-terminal MBP; chain copies: 2;2; label: 5'-32P on AKN1; 1-nt 5' overhang at each end (49 bp)
T3 sequence 1: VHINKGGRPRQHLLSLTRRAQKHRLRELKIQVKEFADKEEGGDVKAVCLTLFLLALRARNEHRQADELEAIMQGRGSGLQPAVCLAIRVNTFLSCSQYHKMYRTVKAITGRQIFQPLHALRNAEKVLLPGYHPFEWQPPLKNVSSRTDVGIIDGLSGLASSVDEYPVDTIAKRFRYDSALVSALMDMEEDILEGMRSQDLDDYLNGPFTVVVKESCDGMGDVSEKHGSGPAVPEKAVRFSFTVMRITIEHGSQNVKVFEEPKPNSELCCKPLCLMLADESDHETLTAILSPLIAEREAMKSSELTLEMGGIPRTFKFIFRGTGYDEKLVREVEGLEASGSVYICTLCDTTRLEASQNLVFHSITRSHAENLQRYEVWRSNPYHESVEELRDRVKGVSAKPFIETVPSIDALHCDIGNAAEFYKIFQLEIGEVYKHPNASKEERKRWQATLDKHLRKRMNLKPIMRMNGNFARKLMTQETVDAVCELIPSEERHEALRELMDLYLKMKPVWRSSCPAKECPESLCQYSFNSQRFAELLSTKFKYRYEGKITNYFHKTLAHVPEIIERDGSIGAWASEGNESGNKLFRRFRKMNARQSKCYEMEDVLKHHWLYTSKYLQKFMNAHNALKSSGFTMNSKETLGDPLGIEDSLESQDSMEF
T3 sequence 2: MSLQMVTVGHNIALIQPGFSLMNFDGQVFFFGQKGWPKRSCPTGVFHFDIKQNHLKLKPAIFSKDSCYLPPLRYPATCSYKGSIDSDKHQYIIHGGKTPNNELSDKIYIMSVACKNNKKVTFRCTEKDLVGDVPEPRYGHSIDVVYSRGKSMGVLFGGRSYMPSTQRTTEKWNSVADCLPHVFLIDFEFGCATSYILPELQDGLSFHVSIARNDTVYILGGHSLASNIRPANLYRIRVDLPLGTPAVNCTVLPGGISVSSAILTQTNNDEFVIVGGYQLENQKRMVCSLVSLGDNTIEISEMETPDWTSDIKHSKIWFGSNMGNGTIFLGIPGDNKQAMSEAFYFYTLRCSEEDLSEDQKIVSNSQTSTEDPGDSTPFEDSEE

[4] = target: T4, MBP-core RAG1 (cRAG1) (UniProt P15919 384-1040); test: EMSA; 5 mM Ca2+; lower band assigned to RAG1 alone; 22.5 mM MOPS-KOH pH 7.0, 20% DMSO, 2.2 mM DTT, 50 mM K-glutamate, 2% glycerol, 100 ng/ml BSA, 5 mM CaCl2, 100 ng RAG, 2 h 25 C, then 0.01% glutaraldehyde fixation 37 C 10 min; 6% native PAGE; settings: protein: recombinant; tags: N-terminal MBP; chain copies: 2; label: 5'-32P on AKN1; 1-nt 5' overhang at each end (49 bp)
T4 sequence: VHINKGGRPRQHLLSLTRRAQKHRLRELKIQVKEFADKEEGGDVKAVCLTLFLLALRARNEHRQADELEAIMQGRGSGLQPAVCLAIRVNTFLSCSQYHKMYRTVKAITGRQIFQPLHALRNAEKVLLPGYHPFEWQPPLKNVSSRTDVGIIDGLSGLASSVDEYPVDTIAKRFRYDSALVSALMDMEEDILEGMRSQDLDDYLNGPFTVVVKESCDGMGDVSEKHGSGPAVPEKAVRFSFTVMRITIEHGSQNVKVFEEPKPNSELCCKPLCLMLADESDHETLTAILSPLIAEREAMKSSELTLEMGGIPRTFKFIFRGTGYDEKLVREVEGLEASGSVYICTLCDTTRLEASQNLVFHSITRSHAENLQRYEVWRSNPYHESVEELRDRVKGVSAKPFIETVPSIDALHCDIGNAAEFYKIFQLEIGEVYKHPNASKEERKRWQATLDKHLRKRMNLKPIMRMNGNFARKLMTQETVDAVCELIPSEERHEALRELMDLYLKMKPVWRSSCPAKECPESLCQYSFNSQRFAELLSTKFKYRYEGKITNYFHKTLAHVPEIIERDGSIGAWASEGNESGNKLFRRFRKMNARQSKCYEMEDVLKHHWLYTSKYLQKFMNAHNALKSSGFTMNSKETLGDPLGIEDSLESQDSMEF

[5] = target: T3, MBP-core RAG1 (cRAG1);MBP-core RAG2 …; test: EMSA; 5 mM Ca2+, Raltegravir 0.1-0.5 mM (no significant effect); 22.5 mM MOPS-KOH pH 7.0, 20% DMSO, 2.2 mM DTT, 50 mM K-glutamate, 2% glycerol, 100 ng/ml BSA, 5 mM CaCl2, 100 ng RAG, 2 h 25 C, then 0.01% glutaraldehyde fixation 37 C 10 min; 6% native PAGE; settings: protein: recombinant;recombinant; tags: N-terminal MBP;N-terminal MBP; chain copies: 2;2; label: 5'-32P on AKN46; blunt ends, internal 6-nt CCCCCC/CCCCCC bubble flanked by 15 bp each side

Question: With COc1cc2c(cc1Cc1cccc(Cl)c1F)c(=O)c(C(=O)O)cn2[C@H](CO)C(C)C [EVG, Elvitegravir] as the molecule, how does the Kd [1] read?
Answer: 32.5 ± 2.9 µM

Question: What about the Kd [2] of the same molecule?
Answer: 43.7 ± 3 µM

B1: 12RSS (AKN1/AKN2) (dsDNA)
DNA 1: GATCAGCTGATAGCTACCACAGTGCTACAGACTGGAACAAAAACCCTGCT
DNA 2: TAGCAGGGTTTTTGTTCCAGTCTGTAGCACTGTGGTAGCTATCAGCTGAT
Question: Does B1 bind [3]?
Answer: binds

Question: Does B1 bind [4]?
Answer: binds

B2: (C/C)6 bubble heteroduplex (AKN46/AKN20) (mixed)
DNA 1: GACCTGAGGGCGAGCCCCCCCCGAGTAACTTAACAG
DNA 2: CTGTTAAGTTACTCGCCCCCCGCTCGCCCTCAGGTC
Question: Does B2 bind [5]?
Answer: binds
